Measurements: patent publication US20240352110A1

Key:
[1] = target: Rf IgM contained in native samples from patients with elevated Rf levels; assay: Elecsys µ-capture (anti-IgM-Ru detection); native sample E8, Rf 339 IU/mL
[2] = target: Rf IgM contained in native samples from patients with elevated Rf levels; assay: Elecsys µ-capture (anti-IgM-Ru detection); native sample B6, Rf 386 IU/mL
[3] = target: Rf IgM contained in native samples from patients with elevated Rf levels; assay: Elecsys µ-capture (anti-IgM-Ru detection); native sample RF-3-4, Rf 321 IU/mL
[4] = target: Rf IgM contained in native samples from patients with elevated Rf levels; assay: Elecsys µ-capture (anti-IgM-Ru detection); native sample A5, Rf 466 IU/mL
[5] = target: Rf IgM contained in native samples from patients with elevated Rf levels; assay: Elecsys µ-capture (anti-IgM-Ru detection); native sample D4, Rf 566 IU/mL
[6] = target: Rf IgM contained in native samples from patients with elevated Rf levels; assay: Elecsys µ-capture (anti-IgM-Ru detection); native sample D8, Rf 572 IU/mL
[7] = target: Rf IgM contained in native samples from patients with elevated Rf levels; assay: Elecsys µ-capture (anti-IgM-Ru detection); native sample C9, Rf 640 IU/mL
[8] = target: Rf IgM contained in native samples from patients with elevated Rf levels; assay: Elecsys µ-capture (anti-IgM-Ru detection); native sample RF_3_6, Rf 371 IU/mL
[9] = target: Rf IgM contained in native samples from patients with elevated Rf levels; assay: Elecsys µ-capture (anti-IgM-Ru detection); native sample RF_3_12, Rf 457 IU/mL
[10] = target: Rf IgM contained in native samples from patients with elevated Rf levels; assay: Elecsys µ-capture (anti-IgM-Ru detection); native sample RF_3_8, Rf 402 IU/mL
[11] = target: Rf IgM contained in native samples from patients with elevated Rf levels; assay: Elecsys µ-capture (anti-IgM-Ru detection); native sample RF_3_3, Rf 394 IU/mL
[12] = target: Rf IgM contained in native samples from patients with elevated Rf levels; assay: Elecsys µ-capture (anti-IgM-Ru detection); native sample RF_3_7, Rf 318 IU/mL
[13] = target: Rf IgM contained in native samples from patients with elevated Rf levels; assay: Elecsys µ-capture (anti-IgM-Ru detection); native sample RF_2_32, Rf 655 IU/mL
[14] = target: Rf IgM contained in native samples from patients with elevated Rf levels; assay: Elecsys µ-capture (anti-IgM-Ru detection); native sample RF_3_13, Rf 1492 IU/mL
[15] = target: Rf IgM contained in native samples from patients with elevated Rf levels; assay: Elecsys µ-capture (anti-IgM-Ru detection); native sample RF_3_10, Rf 322 IU/mL
[16] = target: Rf IgM contained in native samples from patients with elevated Rf levels; assay: Elecsys µ-capture (anti-IgM-Ru detection); native sample RF_3_5, Rf 402 IU/mL
[17] = target: Rf IgM contained in native samples from patients with elevated Rf levels; assay: Elecsys µ-capture (anti-IgM-Ru detection); native sample RF-3-11, Rf 383 IU/mL
[18] = target: Rf IgM contained in native samples from patients with elevated Rf levels; assay: Elecsys µ-capture (anti-IgM-Ru detection); native sample RF_3_1, Rf 430 IU/mL
[19] = target: Rf IgM contained in native samples from patients with elevated Rf levels; assay: Elecsys µ-capture (anti-IgM-Ru detection); native sample E2, Rf 423 IU/mL
[20] = target: Rf IgM contained in native samples from patients with elevated Rf levels; assay: Elecsys µ-capture (anti-IgM-Ru detection); native sample RF-3-2, Rf 401 IU/mL
[21] = target: Rf IgM contained in native samples from patients with elevated Rf levels; assay: Elecsys µ-capture (anti-IgM-Ru detection); native sample RF_2_33, Rf 377 IU/mL
[22] = target: Rf IgM contained in native samples from patients with elevated Rf levels; assay: Elecsys µ-capture (anti-IgM-Ru detection); native sample RF_3_9, Rf 439 IU/mL
[23] = target: Rf IgM contained in native samples from patients with elevated Rf levels; assay: Elecsys µ-capture (anti-IgM-Ru detection); native sample RF_2_31, Rf 457 IU/mL

Elecsys counts [1]: 118000 counts | Elecsys counts [2]: 103000 counts | Elecsys counts [3]: 99600 counts | Elecsys counts [4]: 11600 counts | Elecsys counts [5]: 13300 counts | Elecsys counts [6]: 242000 counts | Elecsys counts [7]: 8240 counts | Elecsys counts [8]: 24500 counts | Elecsys counts [9]: 5670 counts | Elecsys counts [10]: 6820 counts | Elecsys counts [11]: 5850 counts | Elecsys counts [12]: 7580 counts | Elecsys counts [13]: 4220 counts | Elecsys counts [14]: 4740 counts | Elecsys counts [15]: 8620 counts | Elecsys counts [16]: 10400 counts | Elecsys counts [17]: 69300 counts | Elecsys counts [18]: 19700 counts | Elecsys counts [19]: 102000 counts | Elecsys counts [20]: 282000 counts | Elecsys counts [21]: 9430 counts | Elecsys counts [22]: 14500 counts | Elecsys counts [23]: 27300 counts
B1: 21F12 F(ab′)2 fragment (protein)
VH: EVQLQQSGPELLKPGASVKISCKASGFTFTDYTMHWMKQSHGKSLEWIGGINPNSGGTIYNEKFKDKATLTVDKSSRTAYMELRSLTSEDSAVYFCTRGVYDGYFYWGQGTLVTVSA
VL: DVVMTQTPLSLPVSLGDQASISCRSSQSLVYSNGNTFLHWYLQKPGQSPKLLIYKVSTRFSGVPDRFSGSGSGSDFTLKISRVEAEDLGIYFCSQTTHAPFTFGSGTKLAIR
